Measured values published in US20200407750A1.

Key:
[1] = molecular target: AAV9.RGNRQ capsid mutant (adeno-associated virus 9 (AAV9), mutant); assay: cell-based or functional assay
[2] = molecular target: AAV9.SSNTA capsid mutant (adeno-associated virus 9 (AAV9), mutant); assay: cell-based or functional assay
[3] = molecular target: AAV9.RGHRE capsid mutant (adeno-associated virus 9 (AAV9), mutant); assay: cell-based or functional assay
[4] = molecular target: AAV9.SAQAN capsid mutant (adeno-associated virus 9 (AAV9), mutant); assay: cell-based or functional assay
[5] = molecular target: AAV9.SAQAA capsid mutant (adeno-associated virus 9 (AAV9), mutant); assay: cell-based or functional assay
[6] = molecular target: AAV9.AAQAA capsid mutant (adeno-associated virus 9 (AAV9), mutant); assay: cell-based or functional assay
[7] = molecular target: AAV9.TQAAA capsid mutant (adeno-associated virus 9 (AAV9), mutant); assay: cell-based or functional assay
[8] = molecular target: AAV9.QQNAA capsid mutant (adeno-associated virus 9 (AAV9), mutant); assay: cell-based or functional assay
[9] = molecular target: AAV9.WT capsid (AAV9 vector) (adeno-associated virus 9 (AAV9)); assay: cell-based or functional assay
[10] = molecular target: AAV9.RGNRQ capsid mutant (adeno-associated virus 9 (AAV9), mutant); assay: capsid capture ELISA, as told in the discussion
[11] = molecular target: AAV9.RGNRQ capsid mutant (adeno-associated virus 9 (AAV9), mutant); assay: capsid capture ELISA, EC50 from dose-response fit
[12] = molecular target: AAV9.SSNTA capsid mutant (adeno-associated virus 9 (AAV9), mutant); assay: capsid capture ELISA, EC50 from dose-response fit
[13] = molecular target: AAV9.RGHRE capsid mutant (adeno-associated virus 9 (AAV9), mutant); assay: capsid capture ELISA, EC50 from dose-response fit
[14] = molecular target: AAV9.SAQAN capsid mutant (adeno-associated virus 9 (AAV9), mutant); assay: capsid capture ELISA, EC50 from dose-response fit
[15] = molecular target: AAV9.SAQAA capsid mutant (adeno-associated virus 9 (AAV9), mutant); assay: capsid capture ELISA, EC50 from dose-response fit
[16] = molecular target: AAV9.AAQAA capsid mutant (adeno-associated virus 9 (AAV9), mutant); assay: capsid capture ELISA, EC50 from dose-response fit
[17] = molecular target: AAV9.TQAAA capsid mutant (adeno-associated virus 9 (AAV9), mutant); assay: capsid capture ELISA, EC50 from dose-response fit
[18] = molecular target: AAV9.QQNAA capsid mutant (adeno-associated virus 9 (AAV9), mutant); assay: capsid capture ELISA, EC50 from dose-response fit
[19] = molecular target: AAV9.WT capsid (AAV9 vector) (adeno-associated virus 9 (AAV9)); assay: capsid capture ELISA, EC50 from dose-response fit

Substance: PAV9.1 monoclonal antibody
- Fold reduction NAb titer [1]: 8 fold
- Fold reduction NAb titer [2]: 512 fold
- Fold reduction NAb titer [3]: > 2048 fold
- NAb titer of PAV9.1 (reciprocal dilution) [3]: < 80
- Fold reduction NAb titer [4]: 16 fold
- Fold reduction NAb titer [5]: 4 fold
- Fold reduction NAb titer [6]: 16 fold
- Fold reduction NAb titer [7]: 16 fold
- Fold reduction NAb titer [8]: 128 fold
- Fold reduction NAb titer [9]: 1 fold
- effective NAb titer (NAb assay, transduction of HEK293 cells) (reciprocal dilution) [9]: 164000
- fold reduction in binding (relative to WT.AAV9) [10]: 50 fold
- Fold increase EC50 (relative to AAV9.WT) [11]: 96 fold
- Fold increase EC50 (relative to AAV9.WT) [12]: 264 fold
- Fold increase EC50 (relative to AAV9.WT) [13]: 294 fold
- Fold increase EC50 (relative to AAV9.WT) [14]: 40 fold
- Fold increase EC50 (relative to AAV9.WT) [15]: 20 fold
- Fold increase EC50 (relative to AAV9.WT) [16]: 45 fold
- Fold increase EC50 (relative to AAV9.WT) [17]: 15 fold
- Fold increase EC50 (relative to AAV9.WT) [18]: 124 fold
- Fold increase EC50 (relative to AAV9.WT) [19]: 1 fold
